In patent US20210246507A1:

Molecular target: human C3b (human) (UniProt P01024)
Test: SPR (Biacore 3000), human C3b amine-coupled to CM5 chip, FHR-4 injected at 1 to 100 µg/ml, 1:1 Langmuir fit

UniProt P01024, sequence (P01024 23-667 limits assumed, chain 1 of 2): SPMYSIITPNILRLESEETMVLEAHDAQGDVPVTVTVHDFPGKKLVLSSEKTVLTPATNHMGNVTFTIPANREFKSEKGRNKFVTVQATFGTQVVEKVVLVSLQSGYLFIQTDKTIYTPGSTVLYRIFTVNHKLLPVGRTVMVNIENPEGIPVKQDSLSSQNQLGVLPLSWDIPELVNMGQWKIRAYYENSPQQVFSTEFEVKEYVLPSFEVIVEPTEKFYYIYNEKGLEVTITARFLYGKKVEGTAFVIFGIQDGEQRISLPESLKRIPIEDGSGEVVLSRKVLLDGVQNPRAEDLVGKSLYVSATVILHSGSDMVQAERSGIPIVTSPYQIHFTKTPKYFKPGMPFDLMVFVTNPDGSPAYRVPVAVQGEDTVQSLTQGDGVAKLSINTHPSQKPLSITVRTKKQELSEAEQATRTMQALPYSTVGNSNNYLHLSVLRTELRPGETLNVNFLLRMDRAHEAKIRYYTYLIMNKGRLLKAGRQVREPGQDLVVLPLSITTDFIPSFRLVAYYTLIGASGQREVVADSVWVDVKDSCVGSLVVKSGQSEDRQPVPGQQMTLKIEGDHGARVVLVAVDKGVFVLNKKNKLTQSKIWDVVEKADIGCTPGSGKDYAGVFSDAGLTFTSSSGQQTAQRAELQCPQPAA
UniProt P01024, sequence (P01024 749-1663 limits assumed, chain 2 of 2): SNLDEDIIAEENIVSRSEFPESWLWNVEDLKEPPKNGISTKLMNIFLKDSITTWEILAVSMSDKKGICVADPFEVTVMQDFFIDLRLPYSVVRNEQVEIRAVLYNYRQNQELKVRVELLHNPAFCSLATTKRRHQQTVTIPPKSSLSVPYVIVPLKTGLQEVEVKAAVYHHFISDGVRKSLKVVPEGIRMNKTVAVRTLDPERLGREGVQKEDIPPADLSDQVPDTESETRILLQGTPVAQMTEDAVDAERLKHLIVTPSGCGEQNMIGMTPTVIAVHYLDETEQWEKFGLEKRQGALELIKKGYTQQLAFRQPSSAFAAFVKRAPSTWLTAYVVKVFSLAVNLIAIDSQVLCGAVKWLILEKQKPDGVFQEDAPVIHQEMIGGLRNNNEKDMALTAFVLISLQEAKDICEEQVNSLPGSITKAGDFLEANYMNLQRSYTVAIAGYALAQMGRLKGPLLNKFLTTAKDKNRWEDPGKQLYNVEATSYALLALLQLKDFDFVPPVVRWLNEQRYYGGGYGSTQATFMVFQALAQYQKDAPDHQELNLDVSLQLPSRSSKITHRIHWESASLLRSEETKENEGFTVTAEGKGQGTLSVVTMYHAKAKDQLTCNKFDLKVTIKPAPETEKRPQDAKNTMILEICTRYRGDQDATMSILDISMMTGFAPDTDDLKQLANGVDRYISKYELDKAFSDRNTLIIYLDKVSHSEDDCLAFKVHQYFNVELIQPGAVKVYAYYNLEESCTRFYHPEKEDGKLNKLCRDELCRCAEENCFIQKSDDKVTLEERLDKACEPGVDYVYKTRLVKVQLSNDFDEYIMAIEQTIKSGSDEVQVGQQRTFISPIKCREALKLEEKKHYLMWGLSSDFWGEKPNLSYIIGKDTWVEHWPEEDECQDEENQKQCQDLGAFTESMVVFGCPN

- Kd: 1100 nM
Substance: complement factor H-related protein 4 (FHR-4) (from UniProt Q92496 20-578)
